Tests used:
[1] = biological target: human TSLP factor (human, UniProt Q969D9 29-159); experiment: cell-based or functional assay
[2] = biological target: Human TSLP antigen protein (human, UniProt Q969D9 29-159); experiment: blocking ELISA: human TSLP coated, antibody dilutions with 0.02 ug/mL biotinylated TSLPR, SA-HRP, OD450; blocked partner: biotinylated TSLPR protein
Description: The above purified bivalent humanized antibodies were subjected to ELISA to detect blocking activity. […] After washing 5 times with PBST, 100 uL of TMB color-substrate solution was added and colour development at 37° C. for 10 min. The reaction was terminated by adding 2M H₂SO₄ 50 uL/well, and the absorption value was measured at 450 nm on an microplate reader.

[3] = biological target: TSLP-Fc antigen; experiment: BLI (Fortebio): antibody captured on Protein A probe, TSLP-Fc antigen 2-fold from 20 nM, global fit
Description: The binding kinetics of 14 blocking TSLP nanobodies were measured by Bio-layer interferometry (BLI). For kinetic measurements, candidate antibodies were diluted to 5 ug/mL in PBST buffer, TSLP-Fc antigen diluted in PBST buffer in 2-fold gradients in six concentration gradients (2-fold gradient dilution from 20 nM), and set the instrument operating conditions: Temperature 30° C., Shake speed 1000 rpm. Antibodies were captured using a probe already encapsulated with Protein A, capture time 60 s; Binding of gradient diluted antigen, binding time 240 s; dissociation time 300 s; 10 mM glycine (pH 1.7) regenerated 2 times for 5 s each. Fortebio Analysis version 9.0 was used to perform the analysis, Global mode was fitted and the binding rate (Kon), dissociation rate (Kdis) and dissociation constant KD were calculated.

[4] = biological target: TSLP-Biotin protein (UniProt Q969D9 29-159, biotinylated (site not stated)); experiment: flow cytometry blocking assay: antibody diluted 2-fold from 20 ug/mL with TSLP-Biotin on HEK293F/TSLPR transient cells, SA-PE, MFI; blocked partner: TSLPR on the cells
Description: The above 31 purified antibodies were again subjected to flow cytometry blocking activity assay. […] Centrifuged again and discard supernatant, add 200 uL PBS per well to resuspend cells, flow cytometry was performed to detect PE signal of sample.

IC50 of inhibition of hTSLP-induced pSTAT5 (PE MFI, flow cytometry) in BaF3/TSLPR-IL7R cells [1]	IC50 [2]	Kd [3]	koff [3]	kon [3]	IC50 (read off the curve) [4]	Binder
0.0198 ug/ml	0.141 µg/mL	–	–	–	–	Bi-HuNb7-54 (VHH, also called humanized bivalent antibody; bivalent single domain antibody) EVQLLESGGGLVQPGETLRLSCTASGFTFDDSDMGWYRQAPGNECELVSIISSDGMTYYADSVKGRFTISQDNAKNTVYLQMNSLKPEDTAVYYCAATKYSSDYDVAEDWRRGVCGDMDYWGKGTLVTVSSGGGGSGGGGSGGGGSGGGGSEVQLLESGGGLVQPGETLRLSCTASGFTFDDSDMGWYRQAPGNECELVSIISSDGMTYYADSVKGRFTISQDNAKNTVYLQMNSLKPEDTAVYYCAATKYSSDYDVAEDWRRGVCGDMDYWGKGTLVTVSS
0.0797 ug/ml	0.0759 µg/mL	–	–	–	–	Bi-HuNb5-31 (VHH, also called humanized bivalent antibody; bivalent single domain antibody) EVQLLESGGGLVQPGGSLRLSCTASGFTSGGSDMGWYRQAPGNECDLVSYISSDGSTYYADSVKGRFTISQDNAKNTVYLQMNSLKPEDTAVYYCAATDYGLGPPPSSTGQCYGMDYWGKGTLVTVSSGGGGSGGGGSGGGGSGGGGSEVQLLESGGGLVQPGGSLRLSCTASGFTSGGSDMGWYRQAPGNECDLVSYISSDGSTYYADSVKGRFTISQDNAKNTVYLQMNSLKPEDTAVYYCAATDYGLGPPPSSTGQCYGMDYWGKGTLVTVSS
0.472 ug/ml	0.0824 µg/mL	–	–	–	–	Bi-HuNb10-63 (VHH, also called humanized bivalent antibody; bivalent single domain antibody) EVQLLESGGGLVQPGGSLRLSCTASGFTLDDSDMGWYRQAPGDECELVSTISSLGGTYYADSVKGRFTISHDNAKNTVYLQMNSLKPHDTAVYYCAPGTDRYSDCPNEYSVWGQGTLVTVSSGGGGSGGGGSGGGGSGGGGSEVQLLESGGGLVQPGGSLRLSCTASGFTLDDSDMGWYRQAPGDECELVSTISSLGGTYYADSVKGRFTISHDNAKNTVYLQMNSLKPHDTAVYYCAPGTDRYSDCPNEYSVWGQGTLVTVSS
–	–	226 pM	0.000588 s⁻¹	2.61e+06 M⁻¹ s⁻¹	~0.2 µg/mL	Nb7-54 (VHH, Camel nanobody before humanization) VHH: QVQLQESGGGSVQAGETLRLSCTASGFTFDDSDMGWYRQAPGNECELVSIISSDGMTYYADSVKGRFTISQDNAKNTVYLQMNSLKPEDTAVYYCAATKYSSDYDVAEDWRRGVCGDMDYWGKGTQVTVSS
–	–	94.5 pM	0.000263 s⁻¹	2.78e+06 M⁻¹ s⁻¹	–	Nb10-63 (VHH, Camel nanobody before humanization) VHH: QVQLQESGGGSVQAGGSLRLSCTASGFTLDDSDMGWYRQAPGDECELVSTISSLGGTYYADSVKGRFTISHDNAKNTVYLQMNSLKPHDTAVYYCAPGTDRYSDCPNEYSVWGQGTQVTVSS
–	–	115 pM	0.000231 s⁻¹	2.02e+06 M⁻¹ s⁻¹	–	Nb5-31 (VHH, Camel nanobody before humanization) VHH: QVQLQESGGGSVQAGGSLRLSCTASGFTSGGSDMGWYRQAPGNECDLVSYISSDGSTYYADSVKGRFTISQDNAKNTVYLQMNSLKPEDTAVYYCAATDYGLGPPPSSTGQCYGMDYWGKGTQVTVSS
